Data taken from PMC11109976, “CSB and SMARCAL1 compete for RPA32 at stalled forks and differentially control the fate of stalled forks in BRCA2-deficient cells” (Nucleic Acids Research, 2024).

B1: SMARCAL1 peptide (residues 5-30) (peptide)
peptide: LTEEQRKKIEENRQKALARRAEKLLA
notes: SMARCAL1, residues 5-30; also called 26-amino acid SMARCAL1 peptide; source: synthetic peptide, bought: LifeTein, LLC

How the values were obtained:
[1] = target: RPA32C C-terminal domain (Homo sapiens) (UniProt P15927); assay: ITC; conditions: cited from earlier work
[2] = target: T1, RPA32 construct spanning the region 210-270 (UniProt P15927 210-270, RED-tris-NTA dye on the His tag); assay: MST; RPA32C labelled with RED-tris-NTA (His-tag labelling kit), 100 nM mixed 1:1 with 2-fold serial dilutions of the ligand; 50 mM HEPES pH 8.0, 400 mM NaCl, 10% glycerol, 0.05% Tween-20; incubated 30 min at 37°C, measured at 25°C; three replicates; conditions: both partners purified
T1 construct: RPA32, residues 210-270 (C-terminal winged helix domain); Cloned by LIC; also called RPA32(210-270); C-terminal winged helix domain of RPA32; source: E. coli SoluBL21, purified (Ni-NTA, anion exchange, SEC)
T1 sequence (P15927 210-270): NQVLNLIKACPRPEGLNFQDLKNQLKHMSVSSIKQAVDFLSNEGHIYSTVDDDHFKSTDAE

Sequence of RPA32C C-terminal domain (Homo sapiens) (P15927 202-270): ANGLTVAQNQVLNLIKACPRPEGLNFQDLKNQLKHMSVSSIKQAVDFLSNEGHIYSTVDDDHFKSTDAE

Row | Molecule | Kd [1] [nM] | Kd [2] [µM]
1 | SMARCAL1 peptide 5-30 (from UniProt Q9NZC9) | 2900 | –
2 | B1 | – | 470
